{"source": "the Human Domainome abundance scans (Beltran et al. 2025)", "note": "± gives the uncertainty stated by the source.", "data": [{"assay": "abundance fitness (aPCA) (normalised: wild type 0, dead -1); higher = more abundant; growth selection in yeast, the domain comes from the species named", "conditions": "Saccharomyces cerevisiae (strain ATCC 204508 / S288c)", "values": [{"substance": "E3 ubiquitin-protein ligase RSP5 G336Y, P39940", "abundance fitness": "-0.815 ± 0.19"}, {"substance": "E3 ubiquitin-protein ligase RSP5 G345C, P39940", "abundance fitness": "-0.364 ± 0.06"}, {"substance": "E3 ubiquitin-protein ligase RSP5 G345D, P39940", "abundance fitness": "-0.271 ± 0.26"}, {"substance": "E3 ubiquitin-protein ligase RSP5 G345E, P39940", "abundance fitness": "-0.312 ± 0.057"}, {"substance": "E3 ubiquitin-protein ligase RSP5 G345K, P39940", "abundance fitness": "0.148 ± 0.11"}, {"substance": "E3 ubiquitin-protein ligase RSP5 G345L, P39940", "abundance fitness": "-0.303 ± 0.062"}, {"substance": "E3 ubiquitin-protein ligase RSP5 G345M, P39940", "abundance fitness": "-0.14 ± 0.074"}, {"substance": "E3 ubiquitin-protein ligase RSP5 G345P, P39940", "abundance fitness": "-0.717 ± 0.084"}, {"substance": "E3 ubiquitin-protein ligase RSP5 G345Q, P39940", "abundance fitness": "-0.202 ± 0.08"}, {"substance": "E3 ubiquitin-protein ligase RSP5 G345R, P39940", "abundance fitness": "-0.219 ± 0.047"}, {"substance": "E3 ubiquitin-protein ligase RSP5 G345T, P39940", "abundance fitness": "-0.665 ± 0.069"}, {"substance": "E3 ubiquitin-protein ligase RSP5 G345W, P39940", "abundance fitness": "-0.466 ± 0.049"}, {"substance": "E3 ubiquitin-protein ligase RSP5 H352A, P39940", "abundance fitness": "-0.236 ± 0.045"}, {"substance": "E3 ubiquitin-protein ligase RSP5 H352C, P39940", "abundance fitness": "-0.384 ± 0.067"}, {"substance": "E3 ubiquitin-protein ligase RSP5 H352D, P39940", "abundance fitness": "-0.325 ± 0.099"}, {"substance": "E3 ubiquitin-protein ligase RSP5 H352E, P39940", "abundance fitness": "-0.296 ± 0.056"}, {"substance": "E3 ubiquitin-protein ligase RSP5 H352G, P39940", "abundance fitness": "-0.229 ± 0.04"}, {"substance": "E3 ubiquitin-protein ligase RSP5 H352I, P39940", "abundance fitness": "-0.046 ± 0.16"}, {"substance": "E3 ubiquitin-protein ligase RSP5 H352K, P39940", "abundance fitness": "-0.176 ± 0.074"}, {"substance": "E3 ubiquitin-protein ligase RSP5 H352L, P39940", "abundance fitness": "-0.235 ± 0.057"}, {"substance": "E3 ubiquitin-protein ligase RSP5 H352M, P39940", "abundance fitness": "-0.104 ± 0.053"}, {"substance": "E3 ubiquitin-protein ligase RSP5 H352N, P39940", "abundance fitness": "0.049 ± 0.085"}, {"substance": "E3 ubiquitin-protein ligase RSP5 H352P, P39940", "abundance fitness": "-0.636 ± 0.05"}, {"substance": "E3 ubiquitin-protein ligase RSP5 H352Q, P39940", "abundance fitness": "-0.19 ± 0.086"}, {"substance": "E3 ubiquitin-protein ligase RSP5 H352R, P39940", "abundance fitness": "-0.253 ± 0.046"}, {"substance": "E3 ubiquitin-protein ligase RSP5 H352S, P39940", "abundance fitness": "-0.297 ± 0.051"}, {"substance": "E3 ubiquitin-protein ligase RSP5 H352T, P39940", "abundance fitness": "-0.197 ± 0.055"}, {"substance": "E3 ubiquitin-protein ligase RSP5 H352V, P39940", "abundance fitness": "-0.361 ± 0.056"}, {"substance": "E3 ubiquitin-protein ligase RSP5 H352W, P39940", "abundance fitness": "-0.223 ± 0.049"}, {"substance": "E3 ubiquitin-protein ligase RSP5 H352Y, P39940", "abundance fitness": "-0.176 ± 0.12"}, {"substance": "E3 ubiquitin-protein ligase RSP5 L330A, P39940", "abundance fitness": "0.005 ± 0.046"}, {"substance": "E3 ubiquitin-protein ligase RSP5 L330C, P39940", "abundance fitness": "0.05 ± 0.062"}, {"substance": "E3 ubiquitin-protein ligase RSP5 L330D, P39940", "abundance fitness": "0.02 ± 0.065"}, {"substance": "E3 ubiquitin-protein ligase RSP5 L330E, P39940", "abundance fitness": "0.013 ± 0.063"}, {"substance": "E3 ubiquitin-protein ligase RSP5 L330F, P39940", "abundance fitness": "-0.014 ± 0.071"}, {"substance": "E3 ubiquitin-protein ligase RSP5 L330G, P39940", "abundance fitness": "-0.087 ± 0.043"}, {"substance": "E3 ubiquitin-protein ligase RSP5 L330H, P39940", "abundance fitness": "-0.048 ± 0.067"}, {"substance": "E3 ubiquitin-protein ligase RSP5 L330I, P39940", "abundance fitness": "0.007 ± 0.062"}, {"substance": "E3 ubiquitin-protein ligase RSP5 L330K, P39940", "abundance fitness": "-0.023 ± 0.056"}, {"substance": "E3 ubiquitin-protein ligase RSP5 L330M, P39940", "abundance fitness": "0.089 ± 0.073"}, {"substance": "E3 ubiquitin-protein ligase RSP5 L330N, P39940", "abundance fitness": "0.054 ± 0.08"}, {"substance": "E3 ubiquitin-protein ligase RSP5 L330P, P39940", "abundance fitness": "-0.058 ± 0.069"}, {"substance": "E3 ubiquitin-protein ligase RSP5 L330Q, P39940", "abundance fitness": "-0.024 ± 0.053"}, {"substance": "E3 ubiquitin-protein ligase RSP5 L330R, P39940", "abundance fitness": "-0.088 ± 0.045"}, {"substance": "E3 ubiquitin-protein ligase RSP5 L330S, P39940", "abundance fitness": "-0.055 ± 0.05"}, {"substance": "E3 ubiquitin-protein ligase RSP5 L330T, P39940", "abundance fitness": "-0.044 ± 0.062"}, {"substance": "E3 ubiquitin-protein ligase RSP5 L330V, P39940", "abundance fitness": "-0.019 ± 0.041"}, {"substance": "E3 ubiquitin-protein ligase RSP5 L330W, P39940", "abundance fitness": "-0.161 ± 0.054"}, {"substance": "E3 ubiquitin-protein ligase RSP5 L330Y, P39940", "abundance fitness": "-0.003 ± 0.08"}, {"substance": "E3 ubiquitin-protein ligase RSP5 L333A, P39940", "abundance fitness": "-0.648 ± 0.05"}, {"substance": "E3 ubiquitin-protein ligase RSP5 L333C, P39940", "abundance fitness": "-0.428 ± 0.06"}, {"substance": "E3 ubiquitin-protein ligase RSP5 L333D, P39940", "abundance fitness": "-0.472 ± 0.14"}, {"substance": "E3 ubiquitin-protein ligase RSP5 L333E, P39940", "abundance fitness": "-0.64 ± 0.075"}, {"substance": "E3 ubiquitin-protein ligase RSP5 L333F, P39940", "abundance fitness": "-0.034 ± 0.054"}, {"substance": "E3 ubiquitin-protein ligase RSP5 L333G, P39940", "abundance fitness": "-0.708 ± 0.043"}, {"substance": "E3 ubiquitin-protein ligase RSP5 L333H, P39940", "abundance fitness": "-0.451 ± 0.07"}, {"substance": "E3 ubiquitin-protein ligase RSP5 L333I, P39940", "abundance fitness": "-0.227 ± 0.067"}, {"substance": "E3 ubiquitin-protein ligase RSP5 L333K, P39940", "abundance fitness": "-0.6 ± 0.09"}, {"substance": "E3 ubiquitin-protein ligase RSP5 L333M, P39940", "abundance fitness": "-0.037 ± 0.097"}, {"substance": "E3 ubiquitin-protein ligase RSP5 L333N, P39940", "abundance fitness": "-0.627 ± 0.1"}, {"substance": "E3 ubiquitin-protein ligase RSP5 L333P, P39940", "abundance fitness": "-0.63 ± 0.054"}, {"substance": "E3 ubiquitin-protein ligase RSP5 L333S, P39940", "abundance fitness": "-0.654 ± 0.053"}, {"substance": "E3 ubiquitin-protein ligase RSP5 L333T, P39940", "abundance fitness": "-0.572 ± 0.054"}, {"substance": "E3 ubiquitin-protein ligase RSP5 L333V, P39940", "abundance fitness": "-0.447 ± 0.05"}, {"substance": "E3 ubiquitin-protein ligase RSP5 L333W, P39940", "abundance fitness": "-0.331 ± 0.052"}, {"substance": "E3 ubiquitin-protein ligase RSP5 N353D, P39940", "abundance fitness": "-0.147 ± 0.15"}, {"substance": "E3 ubiquitin-protein ligase RSP5 N353E, P39940", "abundance fitness": "-0.149 ± 0.06"}, {"substance": "E3 ubiquitin-protein ligase RSP5 N353F, P39940", "abundance fitness": "-0.323 ± 0.11"}, {"substance": "E3 ubiquitin-protein ligase RSP5 N353G, P39940", "abundance fitness": "-0.132 ± 0.043"}, {"substance": "E3 ubiquitin-protein ligase RSP5 N353H, P39940", "abundance fitness": "-0.563 ± 0.14"}, {"substance": "E3 ubiquitin-protein ligase RSP5 N353I, P39940", "abundance fitness": "-0.083 ± 0.078"}, {"substance": "E3 ubiquitin-protein ligase RSP5 N353K, P39940", "abundance fitness": "-0.141 ± 0.08"}, {"substance": "E3 ubiquitin-protein ligase RSP5 N353L, P39940", "abundance fitness": "-0.278 ± 0.044"}, {"substance": "E3 ubiquitin-protein ligase RSP5 N353M, P39940", "abundance fitness": "-0.132 ± 0.062"}, {"substance": "E3 ubiquitin-protein ligase RSP5 N353P, P39940", "abundance fitness": "-0.673 ± 0.065"}, {"substance": "E3 ubiquitin-protein ligase RSP5 N353Q, P39940", "abundance fitness": "-0.212 ± 0.052"}, {"substance": "E3 ubiquitin-protein ligase RSP5 N353R, P39940", "abundance fitness": "-0.177 ± 0.04"}, {"substance": "E3 ubiquitin-protein ligase RSP5 N353S, P39940", "abundance fitness": "-0.109 ± 0.061"}, {"substance": "E3 ubiquitin-protein ligase RSP5 N353T, P39940", "abundance fitness": "-0.113 ± 0.059"}, {"substance": "E3 ubiquitin-protein ligase RSP5 N353V, P39940", "abundance fitness": "-0.217 ± 0.044"}, {"substance": "E3 ubiquitin-protein ligase RSP5 N353W, P39940", "abundance fitness": "-0.44 ± 0.061"}, {"substance": "E3 ubiquitin-protein ligase RSP5 P334A, P39940", "abundance fitness": "-0.61 ± 0.07"}, {"substance": "E3 ubiquitin-protein ligase RSP5 P334C, P39940", "abundance fitness": "-0.746 ± 0.072"}, {"substance": "E3 ubiquitin-protein ligase RSP5 P334D, P39940", "abundance fitness": "-0.592 ± 0.091"}, {"substance": "E3 ubiquitin-protein ligase RSP5 P334E, P39940", "abundance fitness": "-0.689 ± 0.056"}, {"substance": "E3 ubiquitin-protein ligase RSP5 P334F, P39940", "abundance fitness": "-0.889 ± 0.083"}, {"substance": "E3 ubiquitin-protein ligase RSP5 P334G, P39940", "abundance fitness": "-0.629 ± 0.044"}, {"substance": "E3 ubiquitin-protein ligase RSP5 P334H, P39940", "abundance fitness": "-0.658 ± 0.078"}, {"substance": "E3 ubiquitin-protein ligase RSP5 P334K, P39940", "abundance fitness": "-0.86 ± 0.071"}, {"substance": "E3 ubiquitin-protein ligase RSP5 P334L, P39940", "abundance fitness": "-0.837 ± 0.072"}, {"substance": "E3 ubiquitin-protein ligase RSP5 P334M, P39940", "abundance fitness": "-0.702 ± 0.059"}, {"substance": "E3 ubiquitin-protein ligase RSP5 P334Q, P39940", "abundance fitness": "-0.68 ± 0.056"}, {"substance": "E3 ubiquitin-protein ligase RSP5 P334R, P39940", "abundance fitness": "-1.03 ± 0.05"}, {"substance": "E3 ubiquitin-protein ligase RSP5 P334S, P39940", "abundance fitness": "-0.582 ± 0.053"}, {"substance": "E3 ubiquitin-protein ligase RSP5 P334T, P39940", "abundance fitness": "-0.857 ± 0.069"}, {"substance": "E3 ubiquitin-protein ligase RSP5 P334V, P39940", "abundance fitness": "-0.966 ± 0.05"}, {"substance": "E3 ubiquitin-protein ligase RSP5 P334W, P39940", "abundance fitness": "-1.01 ± 0.071"}, {"substance": "E3 ubiquitin-protein ligase RSP5 P334Y, P39940", "abundance fitness": "-0.627 ± 0.14"}, {"substance": "E3 ubiquitin-protein ligase RSP5 P343A, P39940", "abundance fitness": "0.013 ± 0.044"}, {"substance": "E3 ubiquitin-protein ligase RSP5 P343C, P39940", "abundance fitness": "-0.147 ± 0.16"}, {"substance": "E3 ubiquitin-protein ligase RSP5 P343D, P39940", "abundance fitness": "0.099 ± 0.064"}, {"substance": "E3 ubiquitin-protein ligase RSP5 P343E, P39940", "abundance fitness": "-0.019 ± 0.043"}, {"substance": "E3 ubiquitin-protein ligase RSP5 P343F, P39940", "abundance fitness": "-0.417 ± 0.49"}]}]}
